Experimental data from paper PMC8815974, “Mechanistic Insight Into Cadmium- and Zinc-Induced Inactivation of the Candida albicans Pif1 Helicase”.

T1: CaPif1 (Candida albicans, UniProt Q59RQ0 1-906)
T1 sequence: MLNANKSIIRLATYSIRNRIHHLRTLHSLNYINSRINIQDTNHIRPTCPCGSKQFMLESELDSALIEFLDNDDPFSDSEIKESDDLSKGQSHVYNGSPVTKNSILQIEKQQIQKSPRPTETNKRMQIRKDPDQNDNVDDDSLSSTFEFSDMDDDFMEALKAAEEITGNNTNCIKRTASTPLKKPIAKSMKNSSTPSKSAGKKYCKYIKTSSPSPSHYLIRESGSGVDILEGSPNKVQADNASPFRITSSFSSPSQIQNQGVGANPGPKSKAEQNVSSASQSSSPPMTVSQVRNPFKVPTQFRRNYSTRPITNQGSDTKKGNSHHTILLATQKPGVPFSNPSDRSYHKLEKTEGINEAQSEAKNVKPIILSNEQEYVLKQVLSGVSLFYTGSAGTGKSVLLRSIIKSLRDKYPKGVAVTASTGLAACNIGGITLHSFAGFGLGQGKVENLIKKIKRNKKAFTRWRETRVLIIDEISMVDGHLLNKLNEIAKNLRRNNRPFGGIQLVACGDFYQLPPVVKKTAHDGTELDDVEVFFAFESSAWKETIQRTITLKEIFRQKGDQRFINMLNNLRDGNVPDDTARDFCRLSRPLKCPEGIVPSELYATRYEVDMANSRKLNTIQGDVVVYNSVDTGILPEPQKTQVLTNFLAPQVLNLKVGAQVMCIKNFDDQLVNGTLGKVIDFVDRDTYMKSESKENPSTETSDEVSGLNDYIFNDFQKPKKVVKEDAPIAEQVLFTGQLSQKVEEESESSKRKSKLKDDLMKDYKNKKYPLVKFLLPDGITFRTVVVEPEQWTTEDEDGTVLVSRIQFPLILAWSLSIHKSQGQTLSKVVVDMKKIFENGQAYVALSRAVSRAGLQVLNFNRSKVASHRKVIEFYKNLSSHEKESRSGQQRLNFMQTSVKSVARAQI

B1: OhS22D21 (dsDNA)
DNA 1: CTGTAGGAATGTGAAATAAAAACGATGTTTTATTTACATTGTA
DNA 2: TACAATGTAAATAAAACATCG

Target: T1, CaPif1
Experiment: EMSA; 1.5 mM Mg2+, no ATP; CaPif1 0-3000 nM; 25 mM Tris-HCl pH 7.5, 50 mM NaCl, 1.5 mM MgCl2, 1 mM DTT, 25 C; EMSA 10 nM DNA, 5 min, 6% native PAGE; FP 5 nM DNA, 10 min
Conditions: protein: recombinant, tags: none (N-terminal His-SUMO tag removed)

Row | Binder | binding result (label: 3'-FAM, single strand, 40 nt) | binding result (label: 3'-FAM on strand 1, 5' overhang 22 nt, 21 bp duplex)
1 | CCATGCAGCTGTCAGTCCATTGTCATGCTAGGCCTACTGC (ssDNA) [S40] | binds | –
2 | B1 | – | binds
